Measurements: patent publication US20210379147A1, “METHOD AND SYSTEM FOR TREATING CANCER UTILIZING TINAGL1” (The Trustees of Princeton University, priority 2018, published 2021)

Experiments:
SUM159-M1a = SUM159-M1a orthotopic tumors, single or combined agent treatment; type: in vivo, NSG female mice; details: SUM159-M1a model
Procedure: FIG. 17D is an image of WB analyses where NSG female mice were injected with 10^4 M1a cells by MFP injection, and treated with the indicated reagents twice per week when tumors reached to 2 mm in diameter, then after 5 weeks of the treatments, the primary tumors of each group were collected and activation of EGFR and FAK in primary tumor of each group was tested by WB.
FIG. 17E is a graph illustrating tumor volumes of each treatment group from FIG. 17D.
For xenograft studies, 8-weeks immunocompromised NOD Scid Gamma (NSG) or immunocompetent FVB females were used. Cells were suspended in 10 μl of PBS for mammary gland injection (MFP), or were suspended in 100 μl of PBS for intravenous injection. For human patient-derived xenograft (PDX, HCL001, kindly provided by Dr. Alana Welm) study, we followed the standard protocol for PDX transplantation, maintenance and digestion of the tumors (DeRose et al., 2011). 2×10^4 cells were suspended in 10 μl of PBS and subjected to MFP injection. […] Primary tumors were quantified once per week via caliper measurement. All cell lines used for lung metastasis experiments were stably labeled with a firefly luciferase expressing vector and were monitored by weekly bioluminescent imaging (BLI). At protocol-defined endpoints, lungs were dissected and fixed in bouin's solution and the metastatic lesions were counted.

[1] = target: T1, EGFR extracellular domain recombinant protein (Homo sapiens, UniProt P00533); experiment: IP between recombinant Tinagl1 and recombinant His-tagged EGFR protein; type: binding; details: 5 μg each protein in PBS, IP with His antibody
T1 construct: EGFR extracellular domain recombinant protein was purchased from Novoprotein (CI61); purchased Novoprotein CI61
Procedure: FIG. 13B is an image of a WB assay where 5 μg each of recombinant His-tagged EGFR protein and recombinant Tinagl1 protein were added into 1.5 ml of PBS. 100 μl of combined solution was transferred to a new tube and served as input, and the rest was split into two tubes and IP with 2 μg of IgG or His antibody respectively; the IP samples were washed with PBS and analyzed with WB.
Immunoprecipitation (IP) and western blotting (WB) analysis. For an IP experiment, cells were collected in 1.5 ml EP tube when they reached to 100% confluency in 10 or 15 cm dish as indicated. 1 ml of IP lysis buffer (20 mM Tris pH7.4, 0.15 M NaCl, 1 mM EDTA, 1 mM EGTA, 1% Tx-100) with complete protease inhibitor cocktail (Roche, 14493900) was added and put on ice for 20 min. Meanwhile, culture media was 100× concentrated and mixed with the cell lysates. The samples were centrifuged, 100 μl of the supernatant was transferred to a new tube as input, and the rest was incubated with 2 μg of IgG, anti-HA, anti-Myc, anti-Integrin subunit β1, anti-Integrin subunit α5 or anti-EGFR (as indicated in each experiment) overnight at 4° C. (recombinant proteins may be added at this step as indicated in each experiment). 30 μL of protein A/G agarose beads (Santa Cruz, sc-2003) was then added in each sample for another 2 hours at 4° C. the next day. […] The IP samples were washed with PBS and analyzed with WB. […]

LM2 cells = experiment: Experimental lung metastasis after intravenous injection of LM2 cells, BLI and nodule count; type: in vivo, NSG mice
Procedure: FIG. 6 is a graph of lung metastasis burden measured by BLI every week, for NSG mice under one of three treatment regimens: 1) PBS immediately following injection (510), 2) PBS for the first two weeks followed by r-Tinagl1 treatment (520), and 3) r-Tinagl1 immediately after injection (530).
Referring to FIG. 6, to further evaluate the therapeutic potential of r-Tinagl1 treatment during metastasis, LM2 cells were injected intravenously to generate lung metastasis, and the mice were separated into three distinct treatment groups: 1) PBS immediately following injection (510), 2) PBS for the first two weeks followed by r-Tinagl1 treatment (520), and 3) r-Tinagl1 immediately after injection (530).
For xenograft studies, 8-weeks immunocompromised NOD Scid Gamma (NSG) or immunocompetent FVB females were used. Cells were suspended in 10 μl of PBS for mammary gland injection (MFP), or were suspended in 100 μl of PBS for intravenous injection. For human patient-derived xenograft (PDX, HCL001, kindly provided by Dr. Alana Welm) study, we followed the standard protocol for PDX transplantation, maintenance and digestion of the tumors (DeRose et al., 2011). 2×10^4 cells were suspended in 10 μl of PBS and subjected to MFP injection. For recombinant Tinagl1 (r-Tinagl1), ATN-161, Erlotinib treatments, the mice were injected with 30 μg/mouse, 30 μg/mouse, and 100 mg/kg respectively twice per week via tail-vein. Primary tumors were quantified once per week via caliper measurement. All cell lines used for lung metastasis experiments were stably labeled with a firefly luciferase expressing vector and were monitored by weekly bioluminescent imaging (BLI). At protocol-defined endpoints, lungs were dissected and fixed in bouin's solution and the metastatic lesions were counted.

[2] = tested on: primary tumors and lung lesions; experiment: IHC staining of primary tumors and lung samples for proliferation and apoptosis markers; type: in vivo, mice; details: versus PBS
Excerpt: FIGS. 7A-7D are graphs indicating the percentage of Ki67^+ (FIGS. 7A and 7B) and cleaved caspase-3^+ (FIGS. 7C, 7D) cells counted in primary tumor (FIGS. 7A, 7C) and spontaneous lung metastasis (FIGS. 7B, 7D) samples from mice treated with r-Tinagl1(711, 721, 731, 741) or PBS (710, 720, 730, 740) collected for H&E and IHC staining with indicated antibodies.
To address how Tinagl1 inhibits primary tumor growth and metastasis, primary tumors and corresponding lung samples were stained for proliferation and apoptosis markers. […] Consistent results were also observed in the staining of the tissues collected from the mice injected with the SUM159-M1a cells.
TIC staining was performed as previously described (Wan et al., 2014). Briefly, Paraffin-embedded primary tumor or lung samples were sliced into 4 μm thickness. The slides were baked overnight at 60° C. Next, the tissue slides were washed with PBS after deparaffinization and hydration and then boiled in citrate buffer at 100° C. for 40 min. After treated with 3% H2O2 for 30 min to block endogenous peroxidase, slides were incubated at 4° C. overnight with Ki67 (Leica Biosystem, Ki67-MM1-L-CE-S), cleaved caspase-3 (Cell signaling, 9661S), p-EGFR (Cell signaling, 3777), p-FAK (Cell signaling, 8556), CD31 (Cell signaling, 77699), -SMA (Sigma, A5228), or Tinagl1 (Sigma, HPA048695) antibodies. […]

B1: r-Tinagl1: full length recombinant human Tinagl1 with 6×His tag at the C-terminus [SEQ ID NO.: 24], expressed in HEK293T cells (protein, listed as Homo sapiens)
chain: MWRCPLGLLLLLPLAGHLALGAQQGRGRRELAPGLHLRGIRDAGGRYCQEQDLCCRGRADDCALPYLGAICYCDLFCNRTVSDCCPDFWDFCLGVPPPFPPIQGCMHGGRIYPVLGTYWDNCNRCTCQENRQWQCDQEPCLVDPDMIKAINQGNYGWQAGNHSAFWGMTLDEGIRYRLGTIRPSSSVMNMHEIYTVLNPGEVLPTAFEASEKWPNLIHEPLDQGNCAGSWAFSTAAVASDRVSIHSLGHMTPVLSPQNLLSCDTHQQQGCRGGRLDGAWWFLRRRGVVSDHCYPFSGRERDEAGPAPPCMMHSRAMGRGKRQATAHCPNSYVNNNDIYQVTPVYRLGSNDKEIMKELMENGPVQALMEVHEDFFLYKGGIYSHTPVSLGRPERYRRHGTHSVKITGWGEETLPDGRTLKYWTAANSWGPAWGERGHFRIVRGVNECDIESFVLGVWGRVGMEDMGHHVDHHHHHH
modifications: C-terminal 6xHis tag
lung metastasis (SUM159-M1a): stronger effect than single treatment of Erlotinib
direct interaction with EGFR [1]: confirmed the direct interaction
metastatic growth (BLI) (LM2 cells; PBS for the first two weeks followed by r-Tinagl1 treatment): dramatically decreased metastatic growth
number of lung metastasis nodules (LM2 cells; both r-Tinagl1 treatment groups, end of experiment): significantly reduced number of lung metastasis nodules
metastatic growth (BLI) (LM2 cells; r-Tinagl1 immediately after injection (continuous)): significantly reduced metastatic growth
Ki67+ cells [2]: significantly fewer
cleaved caspase-3+ apoptotic cells [2]: no difference
